These results are taken from patent US20100303887A1, “DHA and PEDF, a Therapeutic Composition for Nerve and Retinal Pigment Epithelial Cells” (priority 2007, published 2010).

For one experiment, the system named is Bcl-2 and Bfl-1. The experiment is described as follows: Anti-apoptotic protein expression in ARPE-19 cells under serum starvation/H2O2/TNFα oxidative stress (Western blot). Format: cell-based, human. Particulars: DHA 10 to 50 nM, with or without PEDF. The method, then:
(§1) Exposure of ARPE-19 cells to growth factors. Cells at 75-80% confluence (72 hr growth in DMEM/F12+10% FBS) were serum-starved for 2 hr before exposure to growth factors. The serum-starved cells were treated with TNF-α (Sigma-Aldrich Corporation, St. Louis, Mo.) (10 ng/ml) and H2O2 (600 μM) to induce oxidative stress and challenged with increasing concentrations (10, 30, 50 nM) and PEDF (Chemicon International, Temecula, Calif.) (50 ng/ml) simultaneously with oxidative stress for 4 hr before harvesting for protein analysis. Cell extracts were made and protein concentrations were adjusted by Bio-Rad protein reagent and used for Western-blot analysis. […] Cells were analyzed to detect Hoechst-positive apoptotic cells.
(§2) Analysis of Bcl-2 and caspase-3 cleavage. Bcl-2 protein and caspase-3 cleavage were analyzed by Western-blot analysis. […] The membranes were probed with primary antibodies against Bcl-2 (Santa Cruz Biotechnology, Inc., Santa Cruz, Calif.) and cleaved caspase-3 (Asp-175) (Cell Signaling) at room temperature and treated for 20 minutes with the secondary antibody, goat anti-rabbit IgG: horseradish peroxidase, and horseradish peroxidase-conjugated anti-biotin antibody, then proteins were detected by using an ECL kit (Amersham Biosciences, Buckinghamshire, United Kingdom). […]
In general terms: Immunoblotting shows a protein as a band on a membrane.

In experiment [1] the test system is NPD1 synthesis. As to the kind of experiment: NPD1 synthesis and release from polarized primary human RPE cell monolayers (lipidomic analysis). Format: cell-based. Particulars: 72 hr. The protocol:
Human RPE cells. Cultures of retinal pigment epithelial (RPE) cells were prepared. RPE cells were seeded onto Millicell-HA culture plate inserts (Millipore, Bradford, Mass.), placed in 24-well plates, and allowed to reach confluence. Consent for use of tissue for research was obtained in compliance with Federal and State law and institutional regulations. Cultures were maintained in Chee's essential replacement medium until the experiments were performed as described in J. Hu and D. Bok (2001) Mol Vis 7:14-19. The medium includes Eagle's minimal essential medium with calcium (MEM, Irvine Scientific, Irvine, Calif.), 1% heat-inactivated calf serum (JRH Bioscience, Lennexo, Kans.), amino acid supplements, and 1% bovine retinal extract. The Millicell-HA filter inserts allow separate manipulation of the culture media bathing the apical and basal surfaces of the RPE monolayer and measurement of the transepithelial resistance (TER), which provides a measure of cell differentiation and confluency. Cultures were used for experiments once they developed a TER of at least 400 Ω·cm^2, as measured by an Epithelial Volt-ohmmeter (EVOM, World Precision Instruments, New Haven, Conn.).
Exposure of RPE cells to growth factors. […] […] The lower chamber was filled with 500 μl media (bathing the basal cell monolayer surface) containing 0.1% HSA. Cells were incubated for 72 hours, then apical and basal media were removed and collected for analysis. After allowing the cells to rest for at least 72 hours on fresh media, the experiments were repeated.
Lipidomic analysis. Human RPE primary cell cultures or ARPE-19 cells were separated from culture media and washed with 1 ml PBS. After addition of 1 ml methanol, cells were scraped from plates or millicell membranes and collected for lipid extraction. Media was spun-down to separate cell debris, then 350 μl were collected in 1 ml of cold chloroform:methanol (1:1). Protein precipitates were then separated by centrifugation at 1500×g (5 min, 4° C.). Lipid extracts were collected, and kept under nitrogen at −80° C. until solid-phase purification; extracts were pre-equilibrated at pH 3.0 in 10% methanol/water, then loaded to 500 mg C18 columns (Varian, Inc., Palo Alto, Calif.), and eluted with 1% methanol/ethyl acetate. Eluates were concentrated on a N2 stream evaporator. Samples were loaded to a liquid chromatograph-tandem mass spectrometer (LC-TSQ Quantum, Thermo-Finnigan; Thermo Fisher Scientific, Waltham, Mass.) installed with a Biobasic-AX column (Thermo-Hypersil-Keystone, Thermo Fisher Scientific, Waltham, Mass.) (100 mm\2.1 mm, 5-μm particle sizes), and eluted in a linear gradient [100% solution A (40:60:0.01 methanol/water/acetic acid pH 4.5) to 100% solution B (99.99:0.01 methanol/acetic acid)], at a flow rate of 300 μl/min for 30 minutes. LC effluents were diverted to an electro-spray-ionization probe (ESI) on a TSQ Quantum (Thermo-Finnigan, Thermo Fisher Scientific, Waltham, Mass.) triple quadrupole mass spectrometer. NPD1 and resolving D1 were obtained by biogenic synthesis as described in N. G. Bazan, D. L. Birkle, and T. S. Reddy (1984) Biochem Biophys Res Commun. 125:741-74, and V. L. Marcheselli et al. (2003) J. Biol. Chem. 278:43807-43817. Erratum in: (2003) J Biol Chem 278:51974. Other lipid standards (Cayman Chem. Ann Arbor, Mich.) were used for tuning and optimization and to create calibration curves. The instrument was set on full-scan mode, to detect parent ions, and selected reaction mode (SRM) for quantitative analysis, to detect product ions, simultaneously. The selected parent/product ions (m/z) and collision energy (v) obtained by running on negative ion detection mode were: 359.2/153.1/20 for NPD1, 343.2/281.2/18 for resolving D1, 351.2/195.0/22 for 20HO-LTB4 (used as internal standard), 327.2/283.3/16 for DHA, 311.3/267.3/20 Arachidonic Acid-d8 (used as internal standard, IS).
Neurotrophins activated NPD1 synthesis in cultured primary human RPE cells. […]

In experiment [2] the test system is NPD1 synthesis. As to the kind of experiment: NPD1 synthesis in cultured ARPE-19 cells (lipidomic analysis). It counts as cell-based, human. Conditions: serum starvation/H2O2/TNFα oxidative stress for the combination. The protocol: Exposure of ARPE-19 cells to growth factors. Cells at 75-80% confluence (72 hr growth in DMEM/F12+10% FBS) were serum-starved for 2 hr before exposure to growth factors. The serum-starved cells were treated with TNF-α (Sigma-Aldrich Corporation, St. Louis, Mo.) (10 ng/ml) and H2O2 (600 μM) to induce oxidative stress and challenged with increasing concentrations (10, 30, 50 nM) and PEDF (Chemicon International, Temecula, Calif.) (50 ng/ml) simultaneously with oxidative stress for 4 hr before harvesting for protein analysis. Cell extracts were made and protein concentrations were adjusted by Bio-Rad protein reagent and used for Western-blot analysis. To study neuroprotection by DHA and PEDF in the oxidative stress-induced ARPE-19 cells, 72 hr cells were serum-starved for 8 hr before the introduction of oxidative stress and challenged with DHA and PEDF for 15 hr. Cells were analyzed to detect Hoechst-positive apoptotic cells.
Lipidomic analysis. Human RPE primary cell cultures or ARPE-19 cells were separated from culture media and washed with 1 ml PBS. After addition of 1 ml methanol, cells were scraped from plates or millicell membranes and collected for lipid extraction. […] The instrument was set on full-scan mode, to detect parent ions, and selected reaction mode (SRM) for quantitative analysis, to detect product ions, simultaneously. […]

A further experiment has as its system Bid, Bax, and Bad. The experiment is described as follows: Pro-apoptotic protein expression in ARPE-19 cells under serum starvation/H2O2/TNFα oxidative stress (Western blot). It counts as cell-based, human. Particulars: DHA 10 to 50 nM, with or without PEDF. The method, then: as §1, §2

B1: PEDF: pigment epithelium-derived factor, a member of the serine protease inhibitor (serpin) family (protein, UniProt P36955 20-418, looked up)
Pigment epithelium-derived …: QNPASPPEEGSPDPDSTGALVEEEDPFFKVPVNKLAAAVSNFGYDLYRVRSSTSPTTNVLLSPLSVATALSALSLGAEQRTESIIHRALYYDLISSPDIHGTYKELLDTVTAPQKNLKSASRIVFEKKLRIKSSFVAPLEKSYGTRPRVLTGNPRLDLQEINNWVQAQMKGKLARSTKEIPDEISILLLGVAHFKGQWVTKFDSRKTSLEDFYLDEERTVRVPMMSDPKAVLRYGLDSDLSCKIAQLPLTGSMSIIFFLPLKVTQNLTLIEESLTSEFIHDIDRELKTVQAVLTVPKLKLSYEGEVTKSLQEMKLQSLFDSPDFSKITGKPIKLTQVEHRAGFEWNEDGAGTTPSPGLQPAHLTFPLDYHLNQPFIFVLRDTDTGALLFIGKILDPRGP
Regarding B1, the “Bcl-2 and Bfl-1 anti-apoptotic protein expression” value in the experiment on Bcl-2 and Bfl-1 is “unable to alter the expression of pro- and anti-apoptotic proteins”. The “NPD1 synthesis and release through the apical surface” value with NPD1 synthesis [1] (growth factors 20 ng/ml added to apical medium) was “by far the most potent stimulator of NPD1 synthesis”. In the experiment on NPD1 synthesis [1] (increasing concentrations), the “NPD1 release, neurotrophin added to the apical medium” value is recorded as “concentration-dependent increases in NPD1 release only on the apical side” and the “NPD1 release, neurotrophin added to the basal medium” value is “much less NPD1 release on the apical side”. Further, in the experiment on NPD1 synthesis [2], the “NPD1 synthesis in ARPE-19 cells” value is recorded as “up-regulate NPD1 synthesis”. Besides, in the experiment with Bid, Bax, and Bad, the “Bid, Bax and Bad pro-apoptotic protein expression” value was “unable to alter the expression of pro- and anti-apoptotic proteins”.
